Test results as given in US20110318357A1.

Target: Shiga toxin type 2 (Stx2) (Escherichia coli) (UniProt P09385)
Assay: cell-based or functional assay

For monoclonal antibody 11E10, the percent neutralization of cytotoxicity for Vero cells was 65%.
